Data taken from patent CN113004395A (JIANGSU PROVINCIAL CENTER FOR DISEASE CONTROL AND …, dated 2021).
Changes are numbered by the printed parent chain.

What was measured:
重组SARS-CoV2核蛋白(NP) [1] = target: 重组SARS-CoV2核蛋白(NP) (SARS-CoV-2, UniProt P0DTC9 1-419)
重组SARS-CoV2核蛋白(NP) [2] = target: T1, 重组SARS-CoV2核蛋白(NP) (SARS-CoV-2, UniProt P0DTC9 1-419); remark: listed apart in the source
重组SARS-CoV2核蛋白(NP) [3] = target: T1, 重组SARS-CoV2核蛋白(NP); experiment: double-antibody sandwich lateral-flow strip, paired with JS08

B1: JS06 (antibody, V domains shown)
VH: EVQLLESGGGVVQPGRSLRLSCAASGFTFSSYGMHWVRQAPGKGLEWVAVIWYDGSNKYYADSVKGRFTISRDNSKNTLYLQMNSLRAEDTAVYYCARAAYGPYYGMDVWGQGTTVTVSS
VL: not shown
Kd (重组SARS-CoV2核蛋白(NP) [1]): 16.1 nM | koff (重组SARS-CoV2核蛋白(NP) [1]): 0.00258 s⁻¹ | kon (重组SARS-CoV2核蛋白(NP) [1]): 161000 M⁻¹ s⁻¹

B2: JS01 (antibody, V domains shown)
VH: QVQLVESGAEVKKPGSSVKVSCKASGGTFSSYAISWVRQAPGQGLEWMGGIIPIFGTANYAQKFQGRVTITADESTSTAYMELSSLRSEDTAVYYCARGGWRSSGYHDYSYYGMDVWGQGTTVTVSS
VL: not shown
Kd (重组SARS-CoV2核蛋白(NP) [2]): 0.22 nM | koff (重组SARS-CoV2核蛋白(NP) [2]): 0.000479 s⁻¹ | kon (重组SARS-CoV2核蛋白(NP) [2]): 2.18e+06 M⁻¹ s⁻¹ | 检测限 (detection limit for NP) (重组SARS-CoV2核蛋白(NP) [3]): < 2 ng/mL

B3: JS13 (antibody, V domains shown)
VH: QVQLVQSGAEVKKPGSSVKVSCKASGGTFSSYAISWVRQAPGQGLEWMGGIIPIFGTANYAQKFQGRVTITADESTSTAYMELSSLRSEDTAVYYCARGGWVICSSTSCYTKYSYYGMDVWGQGTTVTVSS
VL: QSVLTQPPSVSAAPGQKVTISCSGSSSNIGNNYVSWYQQLPGTAPKLLIYDNNKRPSGIPDRFSGSKSGTSATLGITGLQTGDEADYYCGTWDSSLIARLFGGGTKLTVL
Kd (重组SARS-CoV2核蛋白(NP) [2]): 0.12 nM | koff (重组SARS-CoV2核蛋白(NP) [2]): 9.66e-05 s⁻¹ | kon (重组SARS-CoV2核蛋白(NP) [2]): 805000 M⁻¹ s⁻¹ | 检测限 (detection limit for NP) (重组SARS-CoV2核蛋白(NP) [3]): < 2 ng/mL

B4: JS05 (antibody, V domains shown)
VH: EVQLLESGGGVVQPGRSLRLSCAASGFIFSSYGMHWVRQAPGKGLEWVAVIWYDGSNKYYADSVKGRFTISRDNSKNTLYLQMNSLRAEDTAVYYCARDLRGPTGWTFDYWGQGTLVTVSS
VL: ENVLTQSPATLSLSPGERATLSCRASQSVSNYLAWYQQRPGQAPRLLIYDSSNRATGIPARFSGSGSGTDFTLTISSLEPEDFAVYYCQHRSNWKITFGQGTRLEIK
Kd (重组SARS-CoV2核蛋白(NP) [2]): 0.409 nM | koff (重组SARS-CoV2核蛋白(NP) [2]): 0.000243 s⁻¹ | kon (重组SARS-CoV2核蛋白(NP) [2]): 594000 M⁻¹ s⁻¹ | 检测限 (detection limit for NP) (重组SARS-CoV2核蛋白(NP) [3]): < 2 ng/mL

B5: JS12 (antibody, V domains shown)
VH: EVQLLESGGGVVQPGRSLRLSCAASGFTFSSYGMHWVRQAPGKGLEWVAVIWYDGSNKYYADSVKGRFTISRDNSKNTLYLQMNSLRAEDTAVYYCARDGSGSYYWGSLDYWGQGTLVTVSS
VL: B4 VL with N31S, R39K, D50G, S51A, H90Q, K95P, I96W, R103K, L104V
Kd (重组SARS-CoV2核蛋白(NP) [2]): 0.15 nM | koff (重组SARS-CoV2核蛋白(NP) [2]): 7.33e-05 s⁻¹ | kon (重组SARS-CoV2核蛋白(NP) [2]): 488000 M⁻¹ s⁻¹ | 检测限 (detection limit for NP) (重组SARS-CoV2核蛋白(NP) [3]): < 2 ng/mL

B6: JS08 (antibody, V domains shown)
VH: QVQLVQSGPGLVKPSETLSLTCTVSGGSISSYYWSWIRQPPGKGLEWIGNIYYSGSTDYNPSLKSRVTISVDTSKNQFSLRLSSVTAADTAVYYCAREQFSGGDYEGFDFWGQGTLVTVSS
VL: QSVLTQEPSVSGAPGQRVTISCTGSSSNIGAGYDVHWYQQLPGTAPKLLIYGNSNRPSGVPDRFSGSKSGTSASLAITGLQAEDEADYYCQSYDSSLSGWVFGGGTKLTVL
Kd (重组SARS-CoV2核蛋白(NP) [1]): 0.19 nM | koff (重组SARS-CoV2核蛋白(NP) [1]): 5.77e-06 s⁻¹ | kon (重组SARS-CoV2核蛋白(NP) [1]): 30300 M⁻¹ s⁻¹

B7: JS11 (antibody, V domains shown)
VH: EVQLLESGGGVVQPGRSLRLSCAASGFTFSSYGMHWVRQAPGKGLEWVAVIWYDGSNKYYADSVKGRFTISRDNSKNTLYLQMNSLRAEDTAVYYCVGPLMVRGVIIPWGQGTLVTVSS
VL: not shown
Kd (重组SARS-CoV2核蛋白(NP) [2]): 0.292 nM | koff (重组SARS-CoV2核蛋白(NP) [2]): 5.62e-05 s⁻¹ | kon (重组SARS-CoV2核蛋白(NP) [2]): 193000 M⁻¹ s⁻¹

B8: JS14 (antibody, V domains shown)
VH: B5 VH
VL: not shown
Kd (重组SARS-CoV2核蛋白(NP) [2]): 0.178 nM | koff (重组SARS-CoV2核蛋白(NP) [2]): 0.000221 s⁻¹ | kon (重组SARS-CoV2核蛋白(NP) [2]): 1.24e+06 M⁻¹ s⁻¹ | 检测限 (detection limit for NP) (重组SARS-CoV2核蛋白(NP) [3]): < 2 ng/mL
